Measurements as given in patent US20180271864.

Biological target: T1, Flag-tagged human PZR (UniProt O95297)
T1 sequence: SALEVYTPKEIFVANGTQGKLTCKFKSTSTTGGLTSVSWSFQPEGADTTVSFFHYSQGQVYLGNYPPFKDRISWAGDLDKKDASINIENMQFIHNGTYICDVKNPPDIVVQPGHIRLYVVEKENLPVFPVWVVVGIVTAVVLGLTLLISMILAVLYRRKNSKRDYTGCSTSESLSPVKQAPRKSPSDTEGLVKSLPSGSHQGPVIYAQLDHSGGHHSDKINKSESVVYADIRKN

Question: How did the “in vitro Src kinase assay, immunoblot with anti-pPZR (Y241 or Y263) antibodies” value turn out when Src recombinant protein was run?
Answer: These results implicated c-Src as directly phosphorylating PZR at Shp2 binding sites
